B1: HA.ELK-1 [not stated] / recombinant core^SRF [not stated] (parent)
chain 1: MDPSVTLWQFLLQLLREQGNGHIISWTSRDGGEFKLVDAEEVARLWGLRKNKTNMNYDKLSRALRYYYDKNIIRKVSGQKFVYKFVSYPEVAGCSTEDCPPQPEVSVTSTMPNVAPAAIHAAPGDTVSGKPGTPKGAGMAGPGGLARSSRNEYMRSGLYSTFTIQSLQPQPPPHPRPAVVLPSAAPAGAAAPPSGSRSTSPSPLEACLEAEEAGLPLQVILTPPEAPNLKSEELNVEPGLGRALPPEVKVEGPKEELEVAGERGFVPETTKAEPEVPPQEGVPARLPAVVMDTAGQAGGHAASSPEISQPQKGRKPRDLELPLSPSLLGGPGPERTPGSGSGSGLQAPGPALTPSLLPTHTLTPVLLTPSSLPPSIHFWSTLSPIAPRSPAKLSFQFPSSGSAQVHIPSISVDGLSTPVVLSPGPQKP
chain 2: SGAKPGKKTRGRVKIKMEFIDNKLRRYTTFSKRKTGIMKKAYELSTLTGTQVLLLVASETGHVYTFATRKLQPMITSETGKALIQTCLNSP

Results on 2 variants are retold here after PMC6511843.

The variants in the assay derive from B1. Briefly: EMSA (ternary complex with coreSRF on radio-labelled SRE probe), densitometry. The following applies: parent: 100, read off a plot.
Take chain 1 K59R: the percent of parent (% of ELK-1 (WT = 100)) worked out at 11.

In the case of chain 1 K50R K52R, the percent of parent (% of ELK-1 (WT = 100)) came to 51.
